In patent US20170100463A1, “METHOD TO IMPROVE SAFETY AND EFFICACY OF ANTI-CANCER THERAPY” (CLS Therapeutics Limited, priority 2014, published 2017):

Tests used:
L1210 leukemia cells = experiment: Survival of mice transplanted with L1210 leukemia cells; format: in vivo, DBA2 mice; details: AraC 1000 mg/kg IP Days 2, 5, 8; DNase II 15 or 45 mg/kg/day IP; alone or combined
Description: Treatment with DNase and AraC was initiated on Day 1 of experiment. Cytosine arabinoside (AraC; Cytosar; Pfizer) was injected IP at a dose of 1000 mg/kg on Days 2, 5 and 8. The injected doses were considered adequate for the model and injection route based on prior experiments (13-14). DNase II (Wornington) was injected IP at doses of 15 mg/kg/day and 45 mg/kg/day on Days 1, 3, 5, 8, 10, 12, 15, 17, and 19.
Animals were randomized into 6 experimental groups of 6 mice per group as follows: • 1. Group I: negative control (no treatment); • 2. Group II: positive control (animals treated with AraC); • 3. Group III: animals treated with AraC and 15 mg/kg DNase; • 4. Group IV: animals treated with AraC and 45 mg/kg DNase; • 5. Group V: animals treated with 15 mg/kg DNase, no AraC; • 6. Group VI: animals treated with 45 mg/kg DNase, no AraC.

[1] = Gastrointestinal lesions after Etoposide/5-FU chemotherapy in rats; format: in vivo, male Wistar rats; details: for Total number of lesions per group: 16 rats; for Total number of lesions per group / Number of lesion free animals (percent) / Median number of lesions / Number of lesion free animals: Etoposide 200 mg/kg + 5-FU 400 mg/kg per os; for Total number of lesions per group / Median number of lesions: 36 hours; for Number of lesion free animals: of 16 rats
Description: Animals were divided into 4 groups of 16 rats each. Two hours after the Etoposide/5-FU challenge, rats were treated as follows: • 1. Group I: IV placebo (WFI); • 2.

in vivo = experiment: in vivo
Text: Group I: control group (no Doxorubicin, no DNase); • 2.
Animals were monitored during 2 weeks from the beginning of experiment for survival and weight.

[2] = Cyclophosphamide-induced neutropenia, white blood cell count; format: in vivo, BALB/C mice; details: mice, cyclophosphamide 200 mg/kg IP Day 1; for early phase decline in WBC count (FIG. 3): DNase I 25 mg/kg/day IV or GM-CSF 200 μg/kg/day SC Days 2-5
Description: 30 female 10-12 week old BALB/C mice (obtained from Rappolovo animal house) were used in this experiment. […] On Day 1, neutropenia was induced by a single IP injection of 200 mg/kg cyclophosphamide (Cyclophosphanum-LANS) in 200 μl of WFI. Starting on Day 2, mice were then treated as follows: • 1. Group I (n=10): control (no treatment); • 2. Group II (n=10): animals were treated with human recombinant DNase I (Pharmsynthez OJSC) at 25 mg/kg/day (50000 KU/kg/day) dose injected IV on Days 2-5; • 3. Group III (n=10): animals were treated with human recombinant GM-CSF (Neostim, Pharmsynthez OJSC) at 200 μg/kg/day dose injected subcutaneously (SC) on Days 2-5.
The white blood cell count (WBC) in each animal was monitored daily during the 10 day experiment using blood cell counter.

[3] = Myocardial necrosis area in deceased rats challenged with doxorubicin; format: in vivo; details: doxorubicin 7.5 mg/kg, DNase I 15 mg/kg daily IP vs placebo
Description: FIG. 1 is a bar graph showing myocardial necrosis area in deceased rats challenged with sub-lethal IV doses of doxorubicin (7.5 mg/kg) and either daily IP injections of human recombinant DNase I (15 mg/kg) (black bar) or daily IP injections of placebo (WFI) (diagonal hatched bar). Serial myocardium microscopy samples from each heart were analyzed using an automated video analyzer to quantify the necrotic areas. The sum of necrotic area (Sna; nm^2) was calculated as a sum of necrotic areas in 30 serial slides from each individual autopsied heart (n=3 for DNase I-treated rats—black bar; n=5 for placebo-treated rats—diagonal hatched bar).
The hearts deceased rats challenged with sub-lethal doses of doxorubicin (7.5 mg/kg) from (Groups IV and V) were autopsied. Serial myocardium microscopy samples from each heart were analyzed using an automated video analyzer to quantify the necrotic areas. The sum of necrotic area (Sna; nm^2) was calculated as a sum of necrotic areas in 30 serial slides from each individual autopsied heart (n=3 for Group IV (FIG. 1, black bars); n=5 for Group V (FIG. 1, diagonal hatched bars)). Group IV received daily IP injections of human recombinant DNase I at 15 mg/kg dose, while Group V received daily IP injections of placebo (WFI).

Erlich carcinoma cells = experiment: Erlich carcinoma ascites tumor with radiotherapy: survival and body weight
Description: Radiotherapy was performed using a cobalt-60 teletherapy machine. The abdominal fields of the mice were treated by external irradiation. The fractionation was 200 cGy per day for 5 days. Mice were divided into 6 groups treated as follows: Group 1: radiotherapy only (external irradiation 200 cGy per day for 5 days); Group 2: recombinant human DNAse I (Pharmsynthez) 20 mg/kg/day administered intramuscularly in 2 daily doses; Group 3: recombinant human DNAse I (Pharmsynthez) 40 mg/kg/day administered intramuscularly in 2 daily doses; Group 4: radiotherapy (external irradiation 200 cGy per day for 5 days) plus recombinant human DNAse I (Pharmsynthez) 20 mg/kg/day administered intramuscularly in 2 daily doses; Group 5: radiotherapy (external irradiation 200 cGy per day for 5 days) plus recombinant human DNAse I (Pharmsynthez) 40 mg/kg/day administered intramuscularly in 2 daily doses. Group 6 was a control group receiving placebo (water for injection).

[4] = Doxorubicin 7.5 mg/kg/day IV 5 days + DNase I 15 mg/kg/day IP (Group IV) or placebo (Group V)
[5] = Doxorubicin 10.0 mg/kg/day IV 5 days + DNase I 15 mg/kg/day IP (Group VI) or placebo (Group VII)
[6] = rats, Doxorubicin 7.5 mg/kg/day IV 5 days + DNase I 15 mg/kg/day IP (Group IV) or placebo (Group V), monitored 2 weeks
[7] = rats, Doxorubicin 10.0 mg/kg/day IV 5 days + DNase I 15 mg/kg/day IP (Group VI) or placebo (Group VII), monitored 2 weeks
[8] = Group 2: DNAse I 20 mg/kg/day intramuscularly, no radiotherapy
[9] = Group 3: DNAse I 40 mg/kg/day intramuscularly, no radiotherapy
[10] = Group 4: radiotherapy 200 cGy per day for 5 days plus DNAse I 20 mg/kg/day intramuscularly
[11] = Group 5: radiotherapy 200 cGy per day for 5 days plus DNAse I 40 mg/kg/day intramuscularly

Nc1ccn([C@@H]2O[C@H](CO)[C@@H](O)[C@@H]2O)c(=O)n1 [AraC, cytosine arabinoside]
survival after implantation of L1210 leukemia cells (FIG. 4) (L1210 leukemia cells): better survival rates versus non-treated mice

CN/C(=N/CCSCc1nc[nH]c1C)NC#N [Cimetidine, cimetidine, reference compound]
Total number of lesions per group ([1]; treatment 50 mg/kg IV): 40
Number of lesion free animals (percent) ([1]; treatment 50 mg/kg IV): 62.5%
Median number of lesions ([1]; treatment 50 mg/kg IV): 2.5 ± 1.1
Number of lesion free animals ([1]; treatment 50 mg/kg IV): 10

COc1cccc2c1C(=O)c1c(O)c3c(c(O)c1C2=O)C[C@@](O)(C(=O)CO)C[C@@H]3O[C@H]1C[C@H](N)[C@H](O)[C@H](C)O1 [Doxorubicin, reference compound]
Median survival of deceased rats (in vivo; [4]): 8.2 ± 1.0 days
Median survival of deceased rats (in vivo; [5]): 6.6 ± 0.9 days
Median survival of deceased rats (in vivo; male, Wistar, rat, in vivo): 12 ± 2.1 days
Number of dead/out of total in group (in vivo; male, Wistar, rat, in vivo): 3/6
LD50 at 2 weeks (in vivo; male, Wistar, rat, in vivo, iv): 3.75 mg/kg
Number of dead/out of total in group (in vivo; [6]): 5/6
Number of dead/out of total in group (in vivo; [7]): 6/6

GM-CSF: human recombinant GM-CSF (Neostim, Pharmsynthez OJSC)
early phase decline in WBC count (FIG. 3) [2]: not able to prevent it

B1: human recombinant DNase I: human recombinant DNase I (Pharmsynthez OJSC), deoxyribonuclease enzyme (protein, UniProt P24855 23-282, looked up)
Deoxyribonuclease-1: LKIAAFNIQTFGETKMSNATLVSYIVQILSRYDIALVQEVRDSHLTAVGKLLDNLNQDAPDTYHYVVSEPLGRNSYKERYLFVYRPDQVSAVDSYYYDDGCEPCGNDTFNREPAIVRFFSRFTEVREFAIVPLHAAPGDAVAEIDALYDVYLDVQEKWGLEDVMLMGDFNAGCSYVRPSQWSSIRLWTSPTFQWLIPDSADTTATPTHCAYDRIVVAGMLLRGAVVPDSALPFNFQAAYGLSDQLAQAISDHYPVEVMLK
Median survival of deceased rats (in vivo; [4]): 10.3 ± 1.4 days
Median survival of deceased rats (in vivo; [5]): 6.2 ± 1.0 days
Body weight of surviving rats, Baseline (in vivo; rat, in vivo): 168 ± 4 grams
Body weight of surviving rats, Day 4 (in vivo; rat, in vivo): 160 ± 6 grams
Body weight of surviving rats, Day 7 (in vivo; rat, in vivo): 158 ± 5 grams
Body weight of surviving rats, Day 14 (in vivo; rat, in vivo): 164 ± 6 grams
Median survival of deceased rats (in vivo; rat, in vivo): 7 days
Number of dead/out of total in group (in vivo; rat, in vivo): 1/6
Number of dead/out of total in group (in vivo; [6]): 3/6
Number of dead/out of total in group (in vivo; [7]): 6/6
myocardial necrosis area (sum of necrotic area, FIG. 1) [3]: decreases the myocardial necrosis area
Total number of lesions per group ([1]; treatment 1.5 mg/kg IV): 60
Total number of lesions per group ([1]; treatment 50 mg/kg IV): 16
achieved protection against chemotherapy-induced ulceration ([1]; DNase I 50 mg/kg compared to 1.5 mg/kg DNase I and 50 mg/kg cimetidine): significantly superior
Number of lesion free animals (percent) ([1]; treatment 1.5 mg/kg IV): 31.25%
Median number of lesions ([1]; treatment 1.5 mg/kg IV): 3.75 ± 1.53
Number of lesion free animals (percent) ([1]; treatment 50 mg/kg IV): 75%
Median number of lesions ([1]; treatment 50 mg/kg IV): 1.00 ± 0.69
Number of lesion free animals ([1]; treatment 1.5 mg/kg IV): 5
Number of lesion free animals ([1]; treatment 50 mg/kg IV): 12
macroscopic appearance of stained stomach (FIG. 2A) ([1]; oral Etoposide 200 mg/kg and 5-FU 400 mg/kg followed by IV DNase I 50 mg/kg): does not have any macroscopic abnormalities
neutropenia induced by cyclophosphamide (WBC, FIG. 3) ([2]; DNase I 25 mg/kg/day IV Days 2-5): ameliorates neutropenia
early phase decline in WBC count (FIG. 3) [2]: prevents the typical early phase decline in WBC count
% Survival on Day 16 (Erlich carcinoma cells; [8]): 40%
Change in Median Body Weight on Day 16 (Erlich carcinoma cells; [8]): +2 g
% Survival on Day 16 (Erlich carcinoma cells; [9]): 50%
Change in Median Body Weight on Day 16 (Erlich carcinoma cells; [9]): +1.5 g
% Survival on Day 16 (Erlich carcinoma cells; [10]): 80%
Change in Median Body Weight on Day 16 (Erlich carcinoma cells; [10]): 0
% Survival on Day 16 (Erlich carcinoma cells; [11]): 100%
Change in Median Body Weight on Day 16 (Erlich carcinoma cells; [11]): +1.5 g
